In US20210292393A1 (published 2021):

B1: antibody 541 (antibody, V domains shown)
VH: QVQLVQSGAEVKKPGASVKVSCKASGYTFTSYYVHWVRQAPGQSLEWMGVISPSTGSTTYAQNFQGRVTMTRDTSTTTVYMELSSLRSEDTAVYYCARDDYYDSTRYFDLWGRGTLVTVSS
VL: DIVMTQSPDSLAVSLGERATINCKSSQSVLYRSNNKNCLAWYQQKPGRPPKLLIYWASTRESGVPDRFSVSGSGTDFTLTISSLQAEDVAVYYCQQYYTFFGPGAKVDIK
B2: antibody 560 (antibody, V domains shown)
VH: EVQLVESGGGLVQPGGSLRLSCAASGFTISSNYMSWVRQAPGKGLEWVSVIYSGGSTYYADSVKGRFTISRDNSKNTLYLQMNSLRAEDTAVYYCAREEGEWEKDYYGMDVWGQGTTVTVSS
VL: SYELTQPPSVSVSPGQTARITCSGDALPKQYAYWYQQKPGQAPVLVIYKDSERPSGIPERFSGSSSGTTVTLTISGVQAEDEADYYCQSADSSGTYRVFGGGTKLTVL
B3: antibody 533 (antibody, V domains shown)
VH: GVQLVESGGVVVQPGGSLRLSCAASGFSFDDYTMHWVRQAPGKGLEWVSLVSWDGGTTYYTDSVKGRFTISRDNSKNSLYLQMNSLRTEDTALYFCAKDSGRIVPAATFDYWGQGTLVTVSS
VL: DIQMTQSSSSLSASVGDRVTITCRASQDISNYLAWFQQKPGKAPKSLIYAASSLQSGVPSKFSGSGSGTDFTLTISSLQPEDFATYYCQQYYTYPLTFGGGTKVEIK
B4: antibody 537 (antibody, V domains shown)
VH: QVQLQQWGAGLLKPSETLSLTCAVYGGSFSGYYWSWIRQPPGKGLEWIGEINHSGSTNYNPSLKSRVTISVDTSKNQFSLKLSSVTAADTAVYYCARGLYYDMGGGFDYWGQGTLVTVSS
VL: not shown
B5: antibody 548 (antibody, V domains shown)
VH: QVQLVESGGGVVQPGRSLRLSCAASGFTFSSYAMHWVRQAPGKGLEWVAVISYDGSNKYYADSVKGRFTISRDNSKNTLYLQMNNLRAEDTAVYYCAKSGSGSYLSAFDIWGQGTMVTVSS
VL: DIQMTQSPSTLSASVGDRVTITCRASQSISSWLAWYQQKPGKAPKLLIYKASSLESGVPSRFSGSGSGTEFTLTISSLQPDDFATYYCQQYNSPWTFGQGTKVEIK
B6: antibody 547 (antibody, V domains shown)
VH: QVHLVESGGGVVQPGRSLRLSCAASGFALSSYAMHWVRQPPGKGLEWVALISYDGSVKKYADSVKGRITVSGDNSRNTLHLQINSLRADDTAVYYCVRGGVSGPNSFDLWGHGTMVTVSS
VL: DVVLTQSPLSLPVTLGQPASISCRSSQSLEYSVGNTYVNWFQQRPGQSPRRLIYKVSNRDSGVPDRFSGSGSGTDFTLQISRVEADDVGIYYCMQGTHWPVTFGQGTKVEIK
B7: antibody 546 (antibody, V domains shown)
VH: QVQLVESGGGVVQPGRSLRLSCAASGFTFSSYGMHWVRQAPGKGLEWVAVIWYDGSNKYYADSVKGRFTISRDNSKNTLYLQMNSLRAEDTAVYYCARNCGGDCVAGDGFDYWGQGTLVTVSS
VL: DIQMTQSPSSLSASVGDRVTITCRASQSISSYLNWYQQKPGKAPNLLIYAASSLQSGVPSRFSGSGSGTDFTLTISSLQPEDFATYYCQQSYSALTWTFGQGTKVEIK
B8: antibody 543 (antibody, V domains shown)
VH: EVQLVESGGGLVQPGRSLRLSCAASGFTFHDYAMHWVRQAPGKGLEWVSGISWNSGSIGYADSVKGRFTISRDNAKNSLYLQMNSLRAEDTALYYCAKDTFGSSSWYRGDSYYYYGMDVWGQGTTVTVSS
VL: QSALTQPASVSGSPGQSITISCTGTSSDVGGYNYVSWYQQHPGKAPKLMIYEVSNRPSGVSNRFSGSKSGNTASLTISGLQAEDEADYYCSSYTSSSTQRYVVFGGGTKLTVL
B9: antibody 527 (antibody, V domains shown)
VH: QLQLQESGPGLVKPSETLSLTCTVSGGSISSSSYYWGWIRQPPGKGLEWIGSIYYSGSTYYNPSLKSRVTISVDTSKNQFSLKLSSVTAADTAMYYCASHVVVIASSYWCFDLWGRGTLVTVSS
VL: QSALTQPASVSGSPGQSITISCTGTSSDVGGYNYVSWYQQHPGKAPKLMIYDVSNRPSGVSNRFSGSKSGNTASLTISGLQAEDEADYYCSSYTSISTWVFGGGTKLTVL
B10: antibody 556 (antibody, V domains shown)
VH: QVQLVESGGGVVQPGRSLRLSCAASGFTFSSYAMHWVRQAPGKGLEWVAVISYDGSDKYYADSVKGRVTISRDNSKNTLYLQMNSLRVEDTAVFYCAKDDCSGGVCFPDYWGQGTLVTVSS
VL: QSALTQPASVSGSPGQSITISCTGTSSDVGGYNYVSWYQQHPGKAPKLMIYEVSIRPSGVSNRFSGSKSGNTASLTISGLQAEDEAAYYCSSYTSSSTLVFGGGTKLTVL
B11: antibody 536 (antibody, V domains shown)
VH: QVQLVESGGGVVQPGRSLRLSCAASGFTFSSYVMHWVRQAPGKGLEWVALISYDGSNKYYADSVKGRFTISRDNSKNTLYLQMNSLRAEDTAVYYCARGGHIRVGRYFDWLISYFDYWGQGTLVTVSS
VL: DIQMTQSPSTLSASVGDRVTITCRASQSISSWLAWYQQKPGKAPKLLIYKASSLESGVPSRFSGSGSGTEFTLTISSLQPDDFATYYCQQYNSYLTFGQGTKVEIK
B12: antibody 545 (antibody, V domains shown)
VH: QVQLVQSGSELKKPGASVKVSCKASGYTFTSYAMNWVRQAPGQGLEWMGWINTNTGNPTYAQGFTGRFVFSLDTSVSTAYLQISVLKAEDTGVYYCARDHELPNSSSWFGHFEYWGQGTLVTVSS
VL: SYELTQPPSVSVSPGQTARITCSGDALPKQYAYWYQQKAGQAPVLVIYKDSERRSGIPERFSGSSSGTTVTLTISGVQAEDEADYYCQSADSSGTSVVFGGGTKLTVL
B13: anti-SARS-CoV-2 antibody 1000 (antibody, V domains shown)
VH: EVQLVESGGGLVQPGRSLRLSCAASGFTFDDYAMHWVRQAPGEGLEWVSGISWNSGSIGYADSVKGRFTISRDNAKNSLYLQMNSLRAEDTALYYCAKDTRFSFGTIAAAVSGYGMDVWGQGTTVTVSS
VL: QSALTQPASVSGSPGQSITISCTGTSSDVGIFNLVSWYQQHPGKAPKLMIYEVTKRPSGVSNRFSGSKSGNTASLTISGLQAEDEADYYCCSYAGSYVFGTGTKVTVL
B14: anti-SARS-CoV-2 antibody 1075 (antibody, V domains shown)
VH: QVQLVQSGAEVKKPGASVKVSCKVSGYTLIELSMHWVRQAPGKGLEWMGGFDPEDGETIYAQKFQGRVTMTEDTSTDTAYMELSSLRSEDTAVYYCATEWAYYGSGSYLGYWGQGTLVTVSS
VL: EIVMTQSPATLSVSPGERATLSCRASQSVSSNLAWFQQKPGQAPRLLIYGASTRVTVIPARFSGSGSGTEFTLTISSLQSEDFAVYYCQQYNNWPRTFGQGTKVEIK
B15: anti-SARS-CoV-2 antibody 1037 (antibody, V domains shown)
VH: QITLKESGPTLVKPTQTLTLTCTFSGFSLSTSGVGVGWIRQPPGKALEWLALIYWDDDKRYSPSLKSRLTITKDTSKNQVVLTMTNMDPVDTATYYCAHHTITRINDYWGQGTLVTVSS
VL: QSALTQPASVSGSPGQSITISCTATSSDVGAYNYVSWYQQHPGKAPKLMIYDVSKRPSGVSNRFSGSKSGNTASLTISGLQAEDEADYYCSSYTSSSTVFGGGTKLTVL
B16: anti-SARS-CoV-2 antibody 933 (antibody, V domains shown)
VH: QVQLVQSGAEVKKPGASVKVSCKASGYTFTTYDINWVRQATGQGLEWMGWMNPNSGYTDSAQKFQGRVTMTRNTSISTAYMELSSLRSEDTAVYYCASGRGVKTYYFDYWGQGTLVTVSS
VL: SYELTQPPSVSVSPGQTASITCSGDKLGDKSACWYQQKPGQSPVLVICQDTKRPSGIPERFSGSNSGNTATLTISGTQAMDEADYYCQAWDSRTVVFGGGTKLTVL
B17: anti-SARS-CoV-2 antibody 1009 (antibody, V domains shown)
VH: QLQLQESGPGLVKPSQTLSLTCTVSGGSISSGSYYWSWIRQPAGKGLEWIGSIYTSGSTYYNPSLKSRVTISVDTSKNQFSLKLSSVTAADTAVYYCARKNWLQGSFDYWGQGTLVIVSS
VL: NFMLTQPHSVSESPGKTVTISCTRSSGSIANNYVQWYQQRPGSAPTTVIYEDNQRPSGVPDRFSGSIDSSSNSASLTISGLKTEDEADYYCQSYDTSNHGVFGGGTKLTVL
B18: anti-SARS-CoV-2 antibody 966 (antibody, V domains shown)
VH: QVQLVESGGGVVQPGRSLRLSCAASEFTFSSYGMHWVRQAPGKGLEWVAVISHDGSNEYYADSVKGRFTISRDNSKNTLYLQMNSLRAEDTAVYYCAKWRGPHRGYYDRSGYYLGSSRDDYWGQGTLVTVSS
VL: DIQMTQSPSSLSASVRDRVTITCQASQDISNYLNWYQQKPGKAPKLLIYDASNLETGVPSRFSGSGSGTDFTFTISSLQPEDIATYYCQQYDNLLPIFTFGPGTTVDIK
B19: anti-SARS-CoV-2 antibody 923 (antibody, V domains shown)
VH: EVQLVESGGGVVRPGGSLRLSCAASGFIFDDYDMTWVRQAPGKGLEWVSGISWNGGNTGYADSVKGRFTISRDNAKNSLYLQMNSLRAEDTALYHCAVIMSPIPRYSGYDWAGGAFDIWGQGTMVTVSS
VL: SSELTQDPAVSVALGQTVRITCQGDSLRSYYASWYQQKPGQVPILVIYDKNNRPSGIPDRFSGSSSGNTASLTITGAQAEDEADYYCNSRDSSGNAVVFGGGTKLTVL
B20: anti-SARS-CoV-2 antibody 1027 (antibody, V domains shown)
VH: EVQLVESGGGLVQPGGSLRLSCAASGFTVSSNYMSWVRQAPGKGLEWVSIIYSGGSTFYADSVKGRFTISRDSSKNTLYLQMSSLRAEDTAVYYCARDLDYYGMDVWGQGTTVTVSS
VL: DIQLTQSPSFLSAPVGDRVTITCRASQGISSYLAWYQQKPGKAPKLLIYGASTLQSGVPSRFSGSGSGTEFTLTISSLQPEDFATYYCQQLNSYQRFTFGPGTKVEIK
B21: anti-SARS-CoV-2 antibody 1015 (antibody, V domains shown)
VH: EVQLVESGGGLVQPGGSLRLSCAASGFTFSSYWMHWVRQAPGKGLVWVSHINSDGSSTSYADSVKGRFTISRDNAKNTLYLQMNSLRAEDTAVYYCARGLRYFDLDVWGQGTTVTVSS
VL: QSVLTQPPSVSEAPRQRVTISCSGSSSNIGNNAVNWYQQLPGKAPKLLIFYDDLLPSGVSDRFSGSKSGTSASLAISGLQSEDEADYYCAAWDDSLNGGVFGGGTKLTVL
B22: anti-SARS-CoV-2 antibody 1012 (antibody, V domains shown)
VH: EVQVVESGGGLVQPGGSRRLSCTASGFTLRNYWMSWVRQAPGKGLEWVANIKQDGSEKYYVDSVKGRFTISRDNAKNSLYLQMDSLRAEDTAVYYCARGGRYCPGGSCPRWGRGTLVTVSS
VL: DIQMTQSPSSLSASVGDRVTITCQASQDISNFLNWYQLKPGEAPTLLIFDASKLETGVPSRFSGTGFGTDFTFTISSLQPEDTATYYCQQYDDLTSITLGQGTRLEIK
B23: anti-SARS-CoV-2 antibody 989 (antibody, V domains shown)
VH: QVQLQESGPGLVKPSQTLSLTCTVSGGSISSGSYYWSWIRQPAGKGLEWIGRIYTSGSTNYNPSLKSRVTMSVDTSKNHFSLKLRSVTAADTAVYYCARGIAVAGDDDYYYYYGLDVWGQGTTVTVSS
VL: SYELTQPPSVSVSPGQTARITCSGDALPKQYAYWYQQKPGQAPVMVINKDSERPSGIPERFSGSSSGTTVTLTISGVQAEDEADYYCHSADSSGTYWVFGGGTKLTVL

The binders below were run against SARS-CoV-2 full length spike protein, V483A mutant (SARS-CoV-2, UniProt P0DTC2 14-1273).

Point of comparison: B4, “median fold over isotype” value 3.74 fold over isotype. Against it:
- B1 — lower, 1.6 fold over isotype
- B2 — higher, 14.8 fold over isotype
- B3 — higher, 4.86 fold over isotype
- B5 — higher, 10.1 fold over isotype
- B6 — higher, 11.4 fold over isotype
- B7 — higher, 18.9 fold over isotype
- B8 — higher, 8.92 fold over isotype
- B9 — higher, 7.97 fold over isotype
- B10 — higher, 7.35 fold over isotype
- B11 — lower, 2.59 fold over isotype
- B12 — higher, 14.3 fold over isotype

The binders below were run against SARS-CoV-2 spike protein with D614G mutation (SARS-CoV-2, UniProt P0DTC2 14-1208).

Point of comparison: B20, Kd 0.043 nM. Against it:
- B13 — 2.7-fold lower, 0.016 nM
- B14 — 1.9-fold lower, 0.023 nM
- B15 — 1.9-fold lower, 0.023 nM
- B16 — 670-fold higher, 29 nM
- B17 — within 1.5-fold, 0.034 nM
- B18 — 30-fold higher, 1.3 nM
- B19 — 2-fold lower, 0.022 nM
- B21 — 2.1-fold lower, 0.02 nM
- B22 — 1.6-fold lower, 0.027 nM
- B23 — within 1.5-fold, 0.039 nM
